Measurements as given in patent publication US20140154248A1.
Read-outs that look alike come from different tables or passages of the source.

Tests used:
Test in all cases: cell-based or functional assay
transferrin receptor = transferrin receptor (UniProt P02786)
human mesothelin (human) [1] = target: human mesothelin (human) (UniProt Q13421)
human mesothelin (human) [2] = target: human mesothelin (human) (UniProt Q13421); remark: listed apart in the source

Chain of UniProt Q13421 (Q13421 other isoform, or with tags, fused parts or gaps): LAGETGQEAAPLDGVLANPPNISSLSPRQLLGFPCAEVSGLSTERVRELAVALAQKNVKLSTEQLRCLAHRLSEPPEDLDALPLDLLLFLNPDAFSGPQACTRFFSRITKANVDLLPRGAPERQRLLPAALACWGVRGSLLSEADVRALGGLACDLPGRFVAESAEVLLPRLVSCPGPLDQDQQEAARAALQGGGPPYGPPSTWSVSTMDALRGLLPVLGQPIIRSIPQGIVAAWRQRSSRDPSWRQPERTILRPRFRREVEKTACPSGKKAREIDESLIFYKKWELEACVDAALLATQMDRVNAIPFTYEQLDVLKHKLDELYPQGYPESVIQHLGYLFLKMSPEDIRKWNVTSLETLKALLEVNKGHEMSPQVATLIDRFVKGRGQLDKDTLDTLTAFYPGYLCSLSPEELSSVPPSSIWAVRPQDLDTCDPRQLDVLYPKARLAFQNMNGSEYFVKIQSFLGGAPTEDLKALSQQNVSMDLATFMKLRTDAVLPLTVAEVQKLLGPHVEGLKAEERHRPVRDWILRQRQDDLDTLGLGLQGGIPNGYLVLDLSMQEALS
Chain of UniProt P02786 (P02786 whole entry): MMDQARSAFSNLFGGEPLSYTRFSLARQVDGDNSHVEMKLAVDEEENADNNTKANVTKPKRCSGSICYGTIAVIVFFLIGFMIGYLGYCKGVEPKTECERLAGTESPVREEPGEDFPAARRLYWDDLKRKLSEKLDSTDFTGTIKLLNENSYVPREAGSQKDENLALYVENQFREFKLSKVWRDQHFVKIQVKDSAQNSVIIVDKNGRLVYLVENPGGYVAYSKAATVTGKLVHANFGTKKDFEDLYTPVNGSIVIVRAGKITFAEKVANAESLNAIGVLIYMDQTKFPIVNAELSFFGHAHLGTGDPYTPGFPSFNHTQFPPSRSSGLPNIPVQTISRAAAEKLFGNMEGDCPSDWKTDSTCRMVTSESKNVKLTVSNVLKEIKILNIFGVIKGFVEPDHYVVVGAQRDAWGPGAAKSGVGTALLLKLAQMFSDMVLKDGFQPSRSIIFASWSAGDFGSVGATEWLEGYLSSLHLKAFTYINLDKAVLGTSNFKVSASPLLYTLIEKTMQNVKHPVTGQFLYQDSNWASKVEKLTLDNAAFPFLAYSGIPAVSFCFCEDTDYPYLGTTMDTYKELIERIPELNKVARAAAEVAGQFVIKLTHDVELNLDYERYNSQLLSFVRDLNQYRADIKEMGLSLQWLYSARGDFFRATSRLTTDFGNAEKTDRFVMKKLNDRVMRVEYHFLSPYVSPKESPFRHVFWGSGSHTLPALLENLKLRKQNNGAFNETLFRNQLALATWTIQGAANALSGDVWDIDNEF

Question: With HB21 (anti-transferrin receptor/PE38) as the substance, how does the reduction of viability of patient cells NCI-M-02 and NCI-M-03 (crystal violet) (transferrin receptor) read?
Answer: The reduction of viability of patient cells NCI-M-02 and NCI-M-03 (crystal violet) was 90%.

Question: How did the EC50 (ng/ml), cytotoxicity WST-8, A431/K5 cells (human mesothelin (human) [1]) turn out when “SS1P (SS1 (dsFv)-PE38) (from UniProt P11439 278-638)” was run?
Answer: The EC50 (ng/ml), cytotoxicity WST-8, A431/K5 cells was 0.17 ng/mL.

Question: What about the EC50 (ng/ml), cytotoxicity WST-8, A1847 cells (human mesothelin (human) [1]) of the same substance?
Answer: Its EC50 (ng/ml), cytotoxicity WST-8, A1847 cells is 4.59 ng/mL.

Question: And the EC50 (ng/ml), cytotoxicity WST-8, HAY cells (human mesothelin (human) [1])?
Answer: Its EC50 (ng/ml), cytotoxicity WST-8, HAY cells is 4.79 ng/mL.

Question: And the EC50 (ng/ml), cytotoxicity WST-8, KB31 cells (human mesothelin (human) [1])?
Answer: The EC50 (ng/ml), cytotoxicity WST-8, KB31 cells was 0.47 ng/mL.

Question: And the EC50 (ng/ml), cytotoxicity WST-8, L55 cells (human mesothelin (human) [1])?
Answer: The EC50 (ng/ml), cytotoxicity WST-8, L55 cells was 5.32 ng/mL.

Question: And the EC50 (ng/ml), cytotoxicity WST-8, M30 cells (human mesothelin (human) [1])?
Answer: Its EC50 (ng/ml), cytotoxicity WST-8, M30 cells is 2.56 ng/mL.

Question: What about the EC50 (ng/ml), cytotoxicity WST-8, OVACR-8 cells (human mesothelin (human) [1]) of the same substance?
Answer: The EC50 (ng/ml), cytotoxicity WST-8, OVACR-8 cells was 1.4 ng/mL.

Question: What about the decrease in viability of patient cells NCI-M-02 and NCI-M-03 (crystal violet) (human mesothelin (human) [1]) of the same substance?
Answer: Its decrease in viability of patient cells NCI-M-02 and NCI-M-03 (crystal violet) is over 65%.

Question: What about the decrease in viability of patient cells NCI-M-16 and NCI-M-19 (crystal violet) (human mesothelin (human) [1]) of the same substance?
Answer: The decrease in viability of patient cells NCI-M-16 and NCI-M-19 (crystal violet) was over 75%.

Question: And the decrease in viability of patient cells NCI-M-02 and NCI-M-03 (crystal violet) (human mesothelin (human) [2])?
Answer: Its decrease in viability of patient cells NCI-M-02 and NCI-M-03 (crystal violet) is over 60%.
